The target of this assay is EB1 (dog (endogenous in MDCK)). In words: FRET or BRET; immuno-FRET by acceptor photobleaching at the centrosome area of fixed mitotic MDCK cells; primary antibodies with secondary antibodies labelled with Alexa 555 (donor) and Cy5 or Alexa 633 (acceptor), 1 donor : 2 acceptor.

This note sets out measurements from article PMC5668257.

Consider AKAP350 (natural protein), for which the FRET efficiency (donor AKAP350, acceptor EB1) worked out at 11% and the FRET efficiency (donor EB1, acceptor AKAP350) is 5%.
